Measured values as given in the supplement of paper PMC9170038.

How the values were obtained:
MS2 coat protein = assay: apparent KD of MS2 coat protein; higher = weaker reporter binding; conditions: Eterna round: R107
Description: (§1)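 RNA-MaP round R107: designed RNA switches with theophylline, tryptophan, arginine or FMN aptamers are transcribed on-chip within common flanks. They are titrated with SNAP-549-labelled MS2 coat protein in RNA-MaP buffer (100 mM Tris pH 7.5, 80 mM KCl, 4 mM MgCl2), without ligand or with the indicated ligand. Median apparent KD per design.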

[1] = test system: K4 kissing-loop RNA reporter; assay: apparent KD of K4 kissing-loop reporter; higher = weaker reporter binding; conditions: Eterna round: R107;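 also: bound reporter read as fluorescence of individual clusters on recovered sequencing chips by microscopy, with normalized cluster intensities fitted with a binding model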
Description: as §1, with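 “a labelled K4 kissing-loop RNA reporter” for “SNAP-549-labelled MS2 coat protein”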

[2] = input ligand: theophylline 20 uM
[3] = input ligand: theophylline 2 mM
[4] = input ligand: tryptophan 2.4 mM

Row | Sequence | apparent KD of MS2 coat protein (MS2 coat protein; input ligand: arginine 13.2 mM) [nM] | apparent KD of MS2 coat protein (MS2 coat protein; input ligand: none) [nM] | apparent KD of MS2 coat protein (MS2 coat protein; [2]) [nM] | apparent KD of MS2 coat protein (MS2 coat protein; [3]) [nM] | apparent KD of MS2 coat protein (MS2 coat protein; [4]) [nM] | apparent KD of K4 kissing-loop reporter ([1]; input ligand: FMN 200 uM) [nM] | apparent KD of K4 kissing-loop reporter ([1]; input ligand: arginine 13.2 mM) [nM] | apparent KD of K4 kissing-loop reporter ([1]; input ligand: none) [nM] | apparent KD of K4 kissing-loop reporter [1, 2] [nM] | apparent KD of K4 kissing-loop reporter [1, 4] [nM]
1 | CUCUGAGUCCGUAAGGACUCAGAGGCGGAUACCAGCGAGGUCCAUCGCCCUUGGCAGCCGAACAUGAGGAUCACCCAUGUCGGUA [#1 Same State - Theophylline A Attempt #25 (HarryS)] | 11.6 | 9.76 | 12.6 | 19.8 | 11.5 | – | – | – | – | –
2 | CUACAUUUGUAGAAACCGGUCACCAUUACUCGAGGACCGGUACGGCCGCCACUCGUGUCAUGUGAUACAUGAGGAUCACCCAUGU [Tryptophan A 10] | 21.7 | – | 26.2 | 27.1 | – | – | – | – | – | –
3 | AGAAAGAAACAAAACUCAAGGAGAACCGAAGGAGCGGCGAAAGAGCCAGGUAGGUCGCGGUCCUCAACAUGAGGAUCACCCAUGU | 61.6 | 104 | 83.5 | 186 | 96.6 | – | – | – | – | –
4 | ACAUGAGGAUCACCCAUGUACAUCACCCGACGAGGACCGGUACGGCCGCCACUCGGGUAUAUAUUUACAUCGGGUGAUUUUACGU [#23 Tryptophan A Same State] | 21.9 | – | 81.2 | 115 | – | – | – | – | – | –
5 | UGUGUUGUUUUGAUGUUUGGUGUUGCAUGGCAGGAUAUCGUAGAGGCGAGAAGGGCUUGUGAGCGGUAUGAGUGAUGUUUGUAGG [bbgbmullin] | – | – | – | – | – | 433 | 270 | 406 | 400 | 299
6 | UAUGAAGGUGGAGGAUAUUGAUUGAAUCUUGGUCUGGAGUGAUGUUCCGGGAAGCCUUGGAUUCAUCGAGAAGGCCAAGGAUAGU [Extra 1] | – | – | – | – | – | 123 | 269 | 307 | 263 | 198
7 | AGCAGUGAUGUUGCAUUUAAAAUGACCGAUACCAGUAUCGAUAGAUACCCUUGGCAGCGGAUUUCCGCAACGACUAGGAAACUAG [Ex Theophylline A K4 15] | – | – | – | – | – | 324 | 377 | 436 | 504 | 327
8 | CUGCCUCACUCGGCCGCCACUGUAUAAAUGUGACAGUGAUGUUGUCGUCGGAAAGGGCACUUAGGCAGGACCGGGAGUUUCAGGC [theeternabot_exclusion_KL_Trp_B_20] | – | – | – | – | – | 837 | 409 | 801 | 870 | 686
9 | AUUGCGGCCGUUCUAUCACCAGGCGGAGAUACCAGAUGCCAGCAGAUCCCUUGGCAGCUCUGCACGAGAUCCAGUGAUGUUGGGU [theeternabot_exclusion_KL_Theo_A_9] | – | – | – | – | – | 319 | 239 | 320 | 288 | 276
10 | UUCGGCCUGACGGCCGCCACUUUGGGUAGUGAUGUUACCAACAUUCACCAGAUACAGGUUACUUCAAGGACCGGGUCAGACGGUG [theeternabot_exclusion_KL_Trp_B_45] | – | – | – | – | – | 104 | 100 | 121 | 107 | 92.8
11 | UAAGAAUAAGAUGCAGUGAUGUUGCAUCUACGAGGACCGGUACGGCCGCCACUCGAGGUCCUCGAACUGCAUCAGAGGACAAUAA [(H,1)-(H,2)-(Trp1)-(Trp2)-(T)'-(H)'-(T)''] | – | – | – | – | – | 253 | 184 | 286 | 390 | 300
12 | UGUAUGUGAUUUGAUACCAGACCAGCUGGUGGUACCUGAGUGAUGUUCGGGAUGGUCUGGGUCCCUUGGCAGCAAAUCGCAUACU [KL-SSTheoB21] | – | – | – | – | – | 295 | 175 | 254 | 212 | 212
13 | UCACCGCCUAGUGAUGUUACGCGACUCAGAAAGGAUAUAAUCAAUCUUAGAAGGUUCACACCGUAUGGAUAUUAUCUAUCUCGUU [theeternabot_exclusion_KL_FMN_A_39] | – | – | – | – | – | 456 | 284 | 427 | 437 | 398
14 | CAUUCUAUAUGCAGUGAUGUUGCAACUGAUACCAGUAUCGAAAGAUACCCUUGGCAGCGGAAAACCGCUACGUAAUUUAAGAAUG [Ex Theophylline A K4 22] | – | – | – | – | – | 375 | 445 | 489 | 523 | 327
15 | ACCGCAUUGGGAUGAUCCCAAUGCGCUGGUCGAGGACCGGUACGGCCGCCACUCGUCCAGUGAUGUUGGAAUUGGGCUACUGAAG [KL-XTryp-A11] | – | – | – | – | – | 134 | 86.7 | 183 | 195 | 61.1
16 | UUUAUUAAGACGGCCGCCACUGAAUCAUAGUGAUGUUAUGAUAUAAUUUUAGUGAUUUUGAUUAGCAGGACCGGGUCAAUUAUUA [#26 K4 Tryptophan B Exclusion] | – | – | – | – | – | 165 | 133 | 144 | 139 | 140
17 | CGAGUCCUGAGGAGUGAUGUUCCUCGGCCACGAGGACCGGUACGGCCGCCACUCGUUACUCGGGCUUAGUGGCUAGCACUAAGCU [Tirete] | – | – | – | – | – | 200 | 249 | 203 | 238 | 118
18 | UGUGUUGUUUUGAUGUUUGGUGUUUGUUGGCAGGAUAUCGUAGAGGCGAGAAGGGCUUGGGAGCGGUAUGAGUGAUGUUUGUAGG [deedwrmullin] | – | – | – | – | – | 373 | 186 | 364 | 302 | 245
19 | UGAUAGGACAGAAGGAGCGGUAGUGAUGUUGCCAAAAGGAUAAGGUGUCAAAAGACACCCUGCCAGGUAGGUCGCUGUCCUAUCU | – | – | – | – | – | 126 | 136 | 123 | 110 | 99.8
20 | GUAUAUCGAACUGAUACCAGAGAAUAAAGCAGUGAUGUUGCAUAUAUAAAUAAGACUCGACUCCCUUGGCAGCGGGAAGAUAUAC [On purpose 1] | – | – | – | – | – | 170 | 231 | 197 | 280 | 146
